The text below walks through data of article PMC5389665.

The target of this experiment is TerL P74-26 nuclease domain (residues 256–485) (Thermus phage P74-26). The experiment can be described thus: SEC. (In general: SEC sorts molecules by how far they enter the pores of the column.)

In turn, “TerL P74-26 nuclease domain (residues 256–485) (domain or fragment)” showed a stoichiometry N of 2.

As a reminder, the stoichiometry N is the number of molecules, sites or subunits per partner or assembly.
